PMC3610906

Target: microtubules in LLCPK cells (pig (endogenous in LLCPK)) (UniProt P02550)
Test: FRAP; living LLCPK cells expressing GFP-tau, 37°C; fluorescence recovery integrated along line scans on single photobleached microtubules; half time from a first-order rate constant (t1/2 = ln2/k)

Sequence of UniProt P02550 (P02550 whole entry, chain 1 of 2): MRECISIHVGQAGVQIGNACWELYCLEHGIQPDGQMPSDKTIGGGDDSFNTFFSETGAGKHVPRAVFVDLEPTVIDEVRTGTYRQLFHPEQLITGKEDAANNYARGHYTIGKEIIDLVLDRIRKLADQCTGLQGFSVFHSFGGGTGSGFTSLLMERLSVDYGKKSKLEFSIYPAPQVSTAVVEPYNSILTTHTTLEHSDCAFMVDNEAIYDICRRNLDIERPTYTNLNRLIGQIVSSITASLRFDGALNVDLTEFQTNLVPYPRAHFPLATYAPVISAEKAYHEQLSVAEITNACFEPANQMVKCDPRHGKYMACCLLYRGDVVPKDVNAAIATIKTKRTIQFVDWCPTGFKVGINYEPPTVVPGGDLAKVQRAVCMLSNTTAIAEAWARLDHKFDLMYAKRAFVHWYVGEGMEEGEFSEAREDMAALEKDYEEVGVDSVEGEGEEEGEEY
Sequence of UniProt P02550 (Q767L7 whole entry, chain 2 of 2, further chain): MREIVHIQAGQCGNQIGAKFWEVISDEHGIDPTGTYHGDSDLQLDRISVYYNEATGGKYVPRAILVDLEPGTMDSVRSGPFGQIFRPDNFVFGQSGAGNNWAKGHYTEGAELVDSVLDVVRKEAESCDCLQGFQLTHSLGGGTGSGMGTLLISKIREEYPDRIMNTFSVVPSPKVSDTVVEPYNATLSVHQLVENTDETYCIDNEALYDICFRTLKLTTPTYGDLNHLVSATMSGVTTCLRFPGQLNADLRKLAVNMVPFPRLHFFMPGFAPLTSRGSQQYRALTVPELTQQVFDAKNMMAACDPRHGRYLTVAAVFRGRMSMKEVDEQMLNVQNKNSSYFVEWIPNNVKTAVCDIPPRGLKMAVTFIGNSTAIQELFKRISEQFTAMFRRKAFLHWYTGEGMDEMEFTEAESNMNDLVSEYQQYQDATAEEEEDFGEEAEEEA

“GFP-tau (isoform with three microtubule-binding repeats) (natural protein)” showed a half time of fluorescence recovery on microtubules of 6.8 s.
